{"source": "paper doi:10.1101/2023.07.31.551325", "about": "(bioRxiv, 2023)", "target": "the molecule itself", "test": "AUC", "data": [{"protein": "recombinant full-length Plasmodium vivax Sub1 (PvS1FL) (complex) chain 1: GDILPNEGKKEKDDVHKIISELRFLQKVETILESSNMSVSDVEADANAYNPDRDAPKEELQKLQDQQETPSKQPNNLRNSPQKRAEKKESPGKNKKSLRLIVSENHATSPSFFEESLLQEDVVSFIQSKGKLSNLKNLKSMIIDLNSDMTDEELAEYISLLERKGALIESDKLVGAD chain 2: DVSLASVKDAVRRGESSVNWGKLRSTMLEVPSGESPPSHAASSGSPFDDDDDLLSEAALHREEAHLAGSKTTKGYKFNDEYRNLQWGLDLARLDETQDLINANRVSVTKICVIDSGIDYNHPDLRNNIDVNVKELHGRKGVDDDSNGVVDDVYGANFVNNSGDPMDDNYHGTHVSGIISAVGNNGIGIVGVDGHSKLVICKALDQHKLGRLGDMFKCIDYCISRQAHMINGSFSFDEYSNIFNASVEHLRSLGILFFVSASNCAHDKLSKPDIAKCDLAVNHRYPPILSKTHNNVIAVANLKRDLDESYSLSVNSFYSNIYCQLAAPGTNIYSTTPMNNYRKLNGTSMASPHVAAIASIVRSINPNLTYLQIVEILRNAIVKLPSLTERVSWGGYVDILRAVNLAIDSKAAPYIKSHSWFRWKQGSRR", "values": [{"measurement": "stoichiometry N", "value": 2}]}]}
